Assay results reported in US20070207967A1, “Peptide Inhibitors of Matrix Metalloproteinase Activity” (CTT CANCER TARGETING TECHNOLOGIES OY, priority 2004, published 2007).

Biological target: β2 integrin on THP-1 cells (human) (UniProt P05107)
Test: THP-1 cell binding to immobilized KIM127 (competitor) with C domain 50 µg/ml

β2 integrin on THP-1 cells (human), sequence (P05107 23-769): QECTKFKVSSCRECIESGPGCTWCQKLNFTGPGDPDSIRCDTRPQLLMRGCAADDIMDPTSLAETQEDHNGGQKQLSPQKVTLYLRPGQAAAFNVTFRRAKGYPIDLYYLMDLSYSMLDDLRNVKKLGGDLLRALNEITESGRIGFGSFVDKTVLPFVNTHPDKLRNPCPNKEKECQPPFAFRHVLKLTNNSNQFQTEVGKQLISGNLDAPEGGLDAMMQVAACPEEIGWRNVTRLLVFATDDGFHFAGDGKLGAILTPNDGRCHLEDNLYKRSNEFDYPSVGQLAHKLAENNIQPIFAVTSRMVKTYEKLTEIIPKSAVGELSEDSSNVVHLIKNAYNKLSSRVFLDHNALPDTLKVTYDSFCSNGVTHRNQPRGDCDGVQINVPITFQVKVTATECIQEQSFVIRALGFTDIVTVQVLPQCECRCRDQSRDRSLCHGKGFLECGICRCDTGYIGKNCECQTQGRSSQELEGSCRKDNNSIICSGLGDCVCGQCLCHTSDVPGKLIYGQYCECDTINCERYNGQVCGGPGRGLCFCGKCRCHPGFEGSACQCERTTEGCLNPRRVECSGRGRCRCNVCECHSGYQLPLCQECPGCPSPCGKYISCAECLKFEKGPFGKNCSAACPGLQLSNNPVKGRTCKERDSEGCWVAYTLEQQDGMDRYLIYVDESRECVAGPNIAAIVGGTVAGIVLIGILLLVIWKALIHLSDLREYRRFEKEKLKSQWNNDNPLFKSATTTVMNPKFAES

Substance “recombinant MMP-9 C-terminal hemopexin-like domain (Asp494-Asp688) (from UniProt P14780 513-707)” has a % inhibition of THP-1 cell binding to KIM127 of 40%.
